As a reminder, the stoichiometry N is the number of molecules, sites or subunits per partner or assembly.

From PMC10182996 come the findings set out here.

The test has as its target CPn0677-His (recombinant full-length CPn0677 with C-terminal 10His tag) (Chlamydia pneumoniae GiD). In words: SEC; Superdex 200 Increase 10/300 GL, 4 °C, 0.5 ml/min, 5.2 mg CPn0677 (5 mg/ml) in PBS pH 6.0, against standard proteins.

Turning to “CPn0677-His (recombinant full-length CPn0677 with C-terminal 10His tag) (natural protein)”, the stoichiometry N amounted to 2.
